Substrate: O=S(O)(O)=S
Assay: purified protein
Type: biochemical, Escherichia coli
Conditions: 100 mM GSH fixed, 0.4 mM lead acetate, 100 mM HEPES pH 7.4, 37 °C

Row | Protein | Km [mM] | kcat [s⁻¹] | kcat/Km [M⁻¹ s⁻¹]
1 | ΔNS-PspE (Escherichia coli K-12) (protein, Ni-NTA and Superdex 200) AEHWIDVRVPEQYQQEHVQGAINIPLKEVKERIATAVPDKNDTVKVYCNAGRQSGQAKEILSEMGYTHVENAGGLKDIAMPKVKG | 7.8 ± 1.6 | 0.04 | 4.8
2 | GlpE (Escherichia coli K-12) (protein, intact gene (324 bp), C-terminal His6 tag kept, pET30a, E. coli BL21(DE3); Ni-NTA and Superdex 200) MDQFECINVADAHQKLQEKEAVLVDIRDPQSFAMGHAVQAFHLTNDTLGAFMRDNDFDTPVMVMCYHGNSSKGAAQYLLQQGYDVVYSIDGGFEAWQRQFPAEVAYGA | 33.6 ± 7.0 | 0.02 | 0.7

From paper PMC10215317, “The Rhodanese PspE Converts Thiosulfate to Cellular Sulfane Sulfur in Escherichia coli” (Antioxidants, 2023)
